We go through one substance from US20210072252A1.

The target in this assay is synthetic peptide with N-terminal methionine (Example 1, on nanogel surface). In words: single-molecule detection, TIRF microscopy; labeled NAAB on peptide immobilized on nanogel; counts per field of view.

With “wild-type E. coli methionine aminopeptidase (eMAP) (from UniProt P0AE18 1-264) (enzyme)”, the ratio of specific to non-specific binding is 2 to 1.
